Experimental findings from patent US12280118B2 (Kyowa Kirin Co., Ltd., priority 2017, dated 2025) are described below.

Residue numbers refer to the chain shown, from its start. Numbers in names are those of the source.

Assay type in all cases: cell-based
For assay [1], the system named is human Tregs. As to the kind of experiment: Treg proliferation activity. The following applies: for Treg proliferation activity: with respect to IL-2 (P) or 8His-IL-2 (P) as control. As to the method: After human frozen peripheral blood mononuclear cells (PBMCs) (manufactured by AllCells) were melted in a warm bath at 37° C., the cells were suspended in 10 mL of a culture medium [X-vivo15 SFM (manufactured by Lonza) 1000 mL, heat-inactivated human AB serum (manufactured by SIGMA) 150 mL], and a T-75 flask for adhesion (manufactured by greiner bio-one) was seeded the cells, and allowed to stand for 24 hours to culture the cells (37° C., under conditions of 95 vol % air/5 vol % CO2). A total amount of cells was collected, and CD4^+ T cells were enriched using EasySep Human CD4^+ Tcells Enrichment kit (manufactured by […] Technologies).
After staining (on ice, 30 minutes) with Anti-human CD4-Alexa 488 (manufactured by Biolegend), anti-human CD25-PE (manufactured by BD Pharmingen), and anti-human CD127-BV421 (manufactured by Biolegend), a CD4^+ CD25^+ CD127^low fraction (Treg) was separated using a cell sorter SH800 (manufactured by SONY Biotechnology).
The separated Treg and CD3/CD28 Dynabeads (manufactured by Thermo Fischer […]) washed three times with the culture medium were mixed with each other, and suspended in a culture medium at 3.4×10^4 cells/mL, respectively, and a 96-well U bottom plate (manufactured by Corning) was seeded with at 150 μL/well.
After culturing for 5 to 7 days, 50 μL of a total volume of each well was transferred to a 96-well white plate. A Celltiter-Glo solution was added at 50 μL/well, and the mixture was allowed to stand at room temperature for 10 minutes, and then a luminescence value was measured using a luminometer (manufactured by TURNER BIOSYSTEMS).

Assay [2] relates to human NK cells. The assay is described as follows: NK cell proliferation activity. The note with it: for cell proliferation activity on NK cells: compared with IL-2 (P) and 8His-IL-2 as controls. As to the method: A separation of NK cells from human PBMC was performed by a method below. Frozen human PBMC was thawed according to the method described in Example 13, and CD56^+ NK cells were separated using NK Cell Isolation Kit human (manufactured by Miltenyi Biotech). The separated cells were washed three times with a culture medium (1500 rpm, room temperature, 5 minutes) and then subjected to a proliferation assay below.
FIGS. 2A to 2H show results obtained using a proliferation medium, and FIGS. 2I to 2K show results obtained using the X-vivo 10 SFM.

Assay [3] concerns human Tresp. The assay is described as follows: Inhibitory activity of IL-2-stimulated Tregs on Tresp proliferation. The following applies: Tregs cultured 7 days with IL-2 (final concentration 65 nM); compared with unstimulated Treg.
Procedure: All cells were separated from each other by the same lot of frozen human PBMC.
Seven days before the assay, Tregs were separated from the frozen human PBMCs as described in Example 13.
The cell preparation on the day of test was performed as follows. Tregs were separated from the frozen human PBMC by the method described in Example 13 and used as unstimulated Tregs. After CD3^+CD25^− T cells were separated from the frozen human PBMC, by using EasySep Human T Cell Enrichment Kit (manufactured by [sequence] Technologies) and EasySep Human Pan-CD25 Positive Selection and Depletion Kit (manufactured by [sequence] Technologies), the cells were labeled by reacting Celltrace violet (manufactured by Thermo Fischer [sequence]) diluted to 40 μmol/L with a 10% FBS-containing RPMI1640 medium, at room temperature for 5 minutes.
The obtained cells were used as responder T cells (Tresp). HLA-DR+ cells were separated from frozen human PBMCs using Anti-HLA-DR MicroBeads, human (manufactured by Miltenyi Biotec). The obtained cells were used as Antigen presenting cell (APC).
After the obtained cells were suspended in X-vivo 15 SFM to which an anti-CD3 antibody OKT3 (manufactured by Biolegend) was added to obtain a final concentration of 0.5 μg/mL, a 96-well V-bottom plate (manufactured by Sumitomo Bakelite) was seeded with Tresp at 2×10^4 cells/well (50 μL), APC at 1×10^5 cells/well (50 μL), and Tregs at 1.6×10^2 to 5×10^3 cells/well (50 μL) (Tresp:Treg=4:1 to 128:1), and the cells were cultured at 37° C. under 5% CO2 for 4 days.
Thereafter, the cells were stained with anti-human CD4-APC (manufactured by BD Pharmingen) and anti-human CD8-PE (manufactured by BD Pharmingen) (at room temperature for 15 minutes), and then various fluorescent intensities were measured by flow cytometer FACS Canto II (manufactured by BD Biosciences).
The obtained data was exported as FCS file, and then analyzed using data analysis software FLowJo (TreeStar, version 7.6.5) for a division index value, which is an average number of cell divisions in CD4^+ Tresp or CD8^+ Tresp.

As to “H16C-2: glycosylated IL-2 variant; H16 to C-lactose”, the Treg proliferation activity entry in assay [1] is “maintained”. For the same molecule, the “cell proliferation activity on NK cells” value in assay [2] is given as “greatly reduced”. Also, in assay [3], the “proliferation of Tresp in the presence of IL-2-stimulated Tregs” value (“proliferation of Tresp” below) is listed as “inhibited”.

“N88C-2: glycosylated IL-2 variant; N88 to C-lactose”: in assay [1], the Treg proliferation activity result is reported as “maintained”. The “cell proliferation activity on NK cells” value in assay [2] is listed as “greatly reduced”. For the same molecule, the “proliferation of Tresp” value in assay [3] is “inhibited”.

As to “E15C-11: glycosylated IL-2 variant; E15 to C-disialo; C125S”, the Treg proliferation activity entry in assay [1] is “maintained”. Besides, the “cell proliferation activity on NK cells” value in assay [2] is “greatly reduced”.

For “L19C-9: glycosylated IL-2 variant; L19 to C-asialo”, the Treg proliferation activity result in assay [1] is recorded as “maintained”. Further, in assay [2], the “cell proliferation activity on NK cells” value is listed as “greatly reduced”. Besides, in assay [3], the “proliferation of Tresp” value was “inhibited”.

B1: F78C-V40(IAc)/L12C-11: Cys-PEGylated and glycosylated IL-2 variant; F78 to C-V40(IAc); L12 to C-disialo; C125S (protein, UniProt P60568 21-153, looked up, variant L12C F78C C125S)
Interleukin-2: APTSSSTKKTQCQLEHLLLDLQMILNGINNYKNPKLTRMLTFKFYMPKKATELKHLQCLEEELKPLEEVLNLAQSKNCHLRPRDLISNINVIVLELKGSETTFMCEYADETATIVEFLNRWITFSQSIISTLT
modifications: PEG on C78; disialo glycan on C12
notes: Cys-PEGylated and glycosylated IL-2 variant; F78 to C-V40(IAc); L12 to C-disialo; C125S
On to B1, for which the “IL-2-dependent cell proliferation rate” value in assay [1] (Treg, IL-2 concentration of 65 nmol/L) is recorded as not below 80%. In addition, in assay [1], the Treg proliferation activity entry is recorded as “lowered”. The “cell proliferation activity on NK cells” value in assay [2] is given as “greatly reduced”.

B2: V91C-11/V115C-11: glycosylated IL-2 variant; V91, V115 to C-disialo; C125S (protein, UniProt P60568 21-153, looked up, variant V91C V115C C125S)
Interleukin-2: B1 Interleukin-2 with C12L, C78F, V91C, V115C
modifications: disialo glycans on cysteines
notes: glycosylated IL-2 variant; V91, V115 to C-disialo; C125S
On to B2, for which the Treg proliferation activity entry in assay [1] is listed as “maintained”. For the same molecule, the “cell proliferation activity on NK cells” value in assay [2] is “greatly reduced”.

B3: T3C-V80(Mal)/E15C-11: Cys-PEGylated and glycosylated IL-2 variant; T3 to C-V80(Mal); E15 to C-disialo; C125S (protein, UniProt P60568 21-153, looked up, variant T3C E15C C125S)
Interleukin-2: B1 Interleukin-2 with T3C, C12L, E15C, C78F
modifications: maleimide PEG on C3; disialo glycan on C15
notes: Cys-PEGylated and glycosylated IL-2 variant; T3 to C-V80(Mal); E15 to C-disialo; C125S
Consider B3, for which, in assay [1], the Treg proliferation activity entry is recorded as “lowered”. For the same molecule, the “cell proliferation activity on NK cells” value in assay [2] was “greatly reduced”.

B4: T3C-Li20(IAc)/L12C-11/V91C-11: Cys-PEGylated and glycosylated IL-2 variant; T3 to C-Li20(IAc); L12, V91 to C-disialo; C125S (protein, UniProt P60568 21-153, looked up, variant T3C L12C V91C C125S)
Interleukin-2: B1 Interleukin-2 with T3C, C78F, V91C
modifications: PEG on C3; disialo glycans
notes: Cys-PEGylated and glycosylated IL-2 variant; T3 to C-Li20(IAc); L12, V91 to C-disialo; C125S
Consider B4, for which the Treg proliferation activity result in assay [1] was “lowered”. In assay [2], the “cell proliferation activity on NK cells” value is given as “greatly reduced”.

B5: T3C-Y50(IAc)/E15C-11: Cys-PEGylated and glycosylated IL-2 variant; T3 to C-Y50(IAc); E15 to C-disialo; C125S (protein, UniProt P60568 21-153, looked up, variant T3C E15C C125S)
Interleukin-2: B1 Interleukin-2 with T3C, C12L, E15C, C78F
modifications: PEG on C3; disialo glycan on C15
notes: Cys-PEGylated and glycosylated IL-2 variant; T3 to C-Y50(IAc); E15 to C-disialo; C125S
B5: the Treg proliferation activity entry in assay [1] is given as “maintained”. Moreover, the “cell proliferation activity on NK cells” value in assay [2] was “greatly reduced”.

B6: A1C-11/T3C-11/S5C-11/L12C-11/V91C-11: glycosylated IL-2 variant; A1, T3, S5, L12, V91 to C-disialo; C125S (protein, UniProt P60568 21-153, looked up, variant A1C T3C S5C L12C V91C C125S)
Interleukin-2: B1 Interleukin-2 with A1C, T3C, S5C, C78F, V91C
modifications: disialo glycans on cysteines
notes: glycosylated IL-2 variant; A1, T3, S5, L12, V91 to C-disialo; C125S
B6: the Treg proliferation activity entry in assay [1] is given as “lowered”. In assay [2] (NK cells, X-vivo 10 SFM, IL-2 concentration of 65 nmol/L), the “IL-2-dependent cell proliferation rate” value is not above 20%. The “cell proliferation activity on NK cells” value in assay [2] was “greatly reduced”.
